The values below come from US20240181125A1 (WASHINGTON UNIVERSITY, published 2024).

Primed or numbered codes have the meaning given here. Ends that are not written are not given here. FITC′ = not defined here

The target in experiment [1] is T1, TGFβ receptor II (TβR2), R&D, coated on ELISA plate.
T1 construct: Bought protein (R&D), coated at 20 nM; also called TGFβRII; TβRII
The experiment is described as follows: ELISA-like binding assay, receptor coated on plate, FITC fluorescence of bound peptide. The text has this: We synthesized a peptide […]-FITC (PTβR2I), based on the sequence from a phage display library that binds specifically to […] and interactions between TβR2 and TGFβ1.63-65 We first examined the specific binding of PTβR2I with TβR2 using an ELISA-like binding assay. TGFβ receptor I (TβR1), TGFβ receptor III (TβR3), and IgG were used as controls. […] This finding was further validated on the cellular level. We used human dermal fibroblasts (HDFs) to study the binding affinity of PTβR2I to TβR2 under a glucose level of 4.5 g/L, which mimics the hyperglycemic conditions of diabetes. With PTβR2I added, the HDF binding sites on HDF of TβR2 were occupied, so the TβR2 could not be detected by immunofluorescence (FIG. 5F).
To test the ability of PTβR2I to bind to TβR2, a binding assay was performed. TβR1, TβR3, and IgG were used as controls. In brief, ELISA plates (Costar) were coated with 20 nM of TβR2 (R&D), TβR1 (R&D), or IgG (R&D) and incubated at 4° C. overnight. The plate was blocked with Tris-buffered Saline (TBS) containing 5% bovine serum albumin (BSA) for 1 hour. Then PTβR2I (0.5 μg/mL) was added to the plate and incubated for 2 hours. The fluorescence intensity was read by a microplate reader (Molecular Devices) with a predefined wavelength (excitation/emission=485/535 nm).
For orientation: An ELISA detects its analyte on a solid surface through an enzyme-linked reagent.

Experiment [2] deals with T2, TGFβ receptor II (TβR2) on human dermal fibroblasts (HDFs) (human, UniProt P37173 23-567).
T2 construct: whole, on cells; Endogenous receptor on HDFs cultured at 4.5 g/L glucose; also called TGFβRII
As to the kind of experiment: immunofluorescence of HDFs with anti-TβR2 antibody and FITC signal of the peptide.

T1 sequence (P37173 whole entry): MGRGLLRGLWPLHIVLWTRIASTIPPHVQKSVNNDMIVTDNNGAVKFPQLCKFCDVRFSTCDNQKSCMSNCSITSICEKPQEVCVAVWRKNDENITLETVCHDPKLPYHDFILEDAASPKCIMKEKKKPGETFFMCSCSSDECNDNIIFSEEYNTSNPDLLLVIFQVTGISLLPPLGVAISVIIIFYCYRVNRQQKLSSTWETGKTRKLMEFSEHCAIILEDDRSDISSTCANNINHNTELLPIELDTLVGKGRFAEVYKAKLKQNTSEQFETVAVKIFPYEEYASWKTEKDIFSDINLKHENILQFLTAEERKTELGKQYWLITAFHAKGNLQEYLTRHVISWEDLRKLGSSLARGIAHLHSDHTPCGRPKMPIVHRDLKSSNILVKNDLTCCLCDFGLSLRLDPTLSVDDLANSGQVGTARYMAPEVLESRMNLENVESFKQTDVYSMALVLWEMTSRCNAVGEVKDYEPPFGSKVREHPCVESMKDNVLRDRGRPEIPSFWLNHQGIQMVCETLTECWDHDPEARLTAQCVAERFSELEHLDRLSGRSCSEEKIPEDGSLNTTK
T2 sequence (P37173 23-567): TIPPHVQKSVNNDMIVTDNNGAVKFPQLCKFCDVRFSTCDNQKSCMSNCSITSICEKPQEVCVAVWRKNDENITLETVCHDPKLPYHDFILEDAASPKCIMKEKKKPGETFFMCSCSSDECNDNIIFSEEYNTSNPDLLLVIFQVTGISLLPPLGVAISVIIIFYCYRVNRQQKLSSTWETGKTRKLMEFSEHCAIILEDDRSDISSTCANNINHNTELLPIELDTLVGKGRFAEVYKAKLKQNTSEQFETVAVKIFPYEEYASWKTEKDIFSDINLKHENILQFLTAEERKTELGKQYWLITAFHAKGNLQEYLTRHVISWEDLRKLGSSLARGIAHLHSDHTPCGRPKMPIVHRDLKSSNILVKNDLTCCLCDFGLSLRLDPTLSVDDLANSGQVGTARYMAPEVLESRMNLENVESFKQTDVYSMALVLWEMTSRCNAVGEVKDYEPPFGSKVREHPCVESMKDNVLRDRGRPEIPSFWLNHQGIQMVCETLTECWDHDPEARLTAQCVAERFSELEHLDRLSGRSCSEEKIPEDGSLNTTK

Usually Kd stands for a measure of binding affinity in units of concentration. The molecule ECGLLPVGRPDRVWRLCK-{FITC′} (cysteine pairing not given here) [peptide-based TGFβ receptor II inhibitor (PTβR2I), ECGLLPVGRPDRVWRLCK-FITC] came in with a dissociation constant Kd in experiment [1] of 3.4 µM. Further, the binding result in experiment [2] is given as “binds”.
